Measurements as given in publication PMC3182943, “Monalysin, a Novel ß-Pore-Forming Toxin from the Drosophila Pathogen Pseudomonas entomophila, Contributes to Host Intestinal Damage and Lethality” (PLoS Pathogens, 2011).

Target: the molecule itself
Test: SEC-MALS; Silica Gel KW804 column (Shodex), 10 mM Tris, 150 mM NaCl, pH 7.5, 0.5 ml/min; MALS/UV/RI with quasi-elastic light scattering; protein loaded at 0.02 mM

B1: recombinant pro-Monalysin (natural protein)
chain: MTIKEELGQPQSHSIELDEVSKEAASTRAALTSNLSGRFDQYPTKKGDFAIDGYLLDYSSPKQGCWVDGITVYGDIYIGKQNWGTYTRPVFAYLQYVETISIPQNVTTTLSYQLTKGHTRSFETSVNAKYSVGANIDIVNVGSEISTGFTRSESWSTTQSFTDTTEMKGPGTFVIYQVVLVYAHNATSAGRQNANAFAYSKTQAVGSRVDLYYLSAITQRKRVIVPSSNAVTPLDWDTVQRNVLMENYNPGSNSGHFSFDWSAYNDPHRRY
notes: Monalysin (pro-form, pore-forming toxin) of Pseudomonas entomophila L48, ORF PSEEN3174, residues 1 to 271; 30.2 kDa by MALDI-TOF, called the full-length pro-toxin; TRX-His6-TEV fusion from the vector pETG-20A, removed by His-TEV protease; The text mostly calls this protein 'Monalysin' or 'recombinant Monalysin'; upon storage at 4°C it turns partly into the shorter form; Oligomer of about 18 …
  stoichiometry N: ~18 monomers
